Source: the supplement of paper PMC9170038

How the values were obtained:
[1] = system: MS2 coat protein; experiment: apparent KD of MS2 coat protein, switch ON state; designed switch direction (-1 OFF switch, 1 ON switch): -1; higher = weaker reporter binding; conditions: FMN input: 0 or 200 uM; Eterna round: R93 (includes R88 designs)
Procedure, shortened: (§1)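 Illumina sequencing clusters were used for on-chip transcription of designed RNA switches. Titration with SNAP-549-labelled MS2 coat protein followed, in twofold steps from 0.7 or 1.5 nM to 3 µM in 100 mM Tris-HCl pH 7.5, 80 mM KCl, 4 mM MgCl2, without or with constant ligand. Apparent KD is each design's median of fits to normalised cluster binding curves.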

[2] = system: MS2 coat protein; experiment: apparent KD of MS2 coat protein, switch OFF state (with FMN for OFF switches, without FMN for ON switches); designed switch direction (-1 OFF switch, 1 ON switch): -1; higher = weaker reporter binding; conditions: FMN input: 0 or 200 uM; Eterna round: R93 (includes R88 designs)
Procedure, shortened: as §1

Row | Sequence | apparent KD of MS2 coat protein [1] [nM] | apparent KD of MS2 coat protein [2] [nM]
1 | AAGAAGUGAGGAUAUCGAAGACUGUCGAAAAGACAGUCGAACGAGAAGGCACAUGAGGAUCACCCAUGUGAGGA [Marsurpial 65% 2] | 26.2 | 50.1
2 | AAGAAUGCAGGAUAUACAUGAGGAUCACCCAUGUAAAAGAAAGAGGGAAAAGAGAAAAGUAGAAGGGCAAAGAA [Cleopatra III] | 26.1 | 37.6
3 | AUAAGUCGAGGAUAUACGAAAUGCUAGCGAAAGCUAGCAUAACAUGAGGAUCACCCAUGUAGAAGGCGACAAUA [Tetraloop hairpin BlockHead... 61% 3] | 22.9 | 20.6
4 | GGUUGGCGAGGAUAUACAUGAGGAUCACCCAUGUGAGAGAAAAAAGUGAGACAGAAAAGUAGAAGGCGCUGACG [salish99-ex3-24] | 65.8 | 7.45
5 | AGAAAGUGAGGAUAUUCGGAUAGGAAAACGAAAACCUAUCCGAAGAAGGCACAUGAGGAUCACCCAUGUAAAAA [Mat - Exaclusion 4 - Eli mod - D38] | 33.2 | 37.5
6 | CGUUUGUUAGGAUAUAGCCACAUUACGAAUAAGUAGUGUGGCUAGAAGGAACAUGAGGAUCACCCAUGUAUGGG [Exclusion 4.3 (AU closing FMN)] | 110 | 78.5
7 | GUGUACAGAGGAUAUACAUGGGCAUGAAAACAUGCAUCCUCACAUGAGGAUCACCCAUGUAGAAGGCUGUACAC [Ex2: 706] | 24.5 | 25.7
8 | AAGAAGUCAGGAUAUGCUGCUCGUCACAAAAGUGAUGAGUAGCAGAAGGGACAUGAGGAUCACCCAUGUAAACA [Opal 34] | 37.6 | 47.2
9 | AAAAUGUCAGGAUAUGCGAAGGCGUCUGACAGACGAGGAUUGCAGAAGGGACAUGAGGAUCACCCAUGUAAAAA [A Change in Energy (MS2 Riboswitch - Exclusion 4)] | 84.3 | 131
10 | UAAAGGAUAGGAUAUACAUGAGGAUCACCCAUGUGAAUAAAUAAAAAAAUAAAAUAAAGUAGAAGGAUCAAUAA [LROPPY Exclusion 3 - v04_deltaG=3.9 break up As] | 32.2 | 34
11 | GAAAGGGCAGGAUAUGCAGAGAGAGAGAGAGAGAGAGAGAAACAUGAGGAUCACCCAUGUAGAAGGGCCGAAAG [salish99-ex2-07] | 30.9 | 29.2
12 | AAACACGGAGGAUAUACACCAUACAAACCUCUAAACAAAAAACAUGAGGAUCACCCAUGUAGAAGGCCGAACAA [Default title] | 24.7 | 28
13 | GAAAAGUGAGGAUAUUCGGAUAGGAAAACGAAAACCUAUCCGAAGAAGGCACAUGAGGAUCACCCAUGUGGAAG [Mat - Exaclusion 4 - Eli mod - D46] | 26.1 | 30.7
14 | AAAAAACAUGAGGAUCACCCAUGUAAGGAUAUGCUCGGGCGAAAAAGCAAAAAAAAGAGCAGAAGGUACAAAAA [66%, Wbt, 42] | 20.5 | 38.7
15 | AAGAAGGUAGGAUAUACUAAAGAAAUAAAAAGAAAGAAAGAACAUGAGGAUCACCCAUGUAGAAGGGCCAAGAA [Merkare] | 51 | 35.2
16 | AGAAAGUCAGGAUAUAUGCGAAAAAUAAAAAAAAUAAAAACAUAGAAGGGACAUGAGGAUCACCCAUGUUAAGA [Mat - Exclusion 4 - Mayanna - D136] | 50 | 32
17 | AAAAAGUAAGGAUAUACAAGAGAAAACACAAAAAAAAAAAAACAUGAGGAUCACCCAUGUAGAAGGUACAAAAA [Diamond 82] | 27.5 | 24.6
18 | AACAUGUGAGGAUAUGUACGAAAAAAUAAAAAAAUAAAAGUACAGAAGGCACAUGAGGAUCACCCAUGUGAAAA [EX4 395: Minimal 8] | 176 | 271
19 | AAAAAGUGAGGAUAUACAUGAGGAUCACCCAUGUGAUAAAAAAAAAGGGUGGAAGAAAGUAGAAGGCACCAAAA [Ex 3 May 49] | 108 | 77.5
20 | AAAACGGCAGGAUAUACAGAUGAGAACUAGACCGAAAAAAAACAUGAGGAUCACCCAUGUAGAAGGGCCAAAAA [Ex2 Malc#7] | 27.8 | 36.8
21 | GGAAAACAUGAGGAUCACCCAUGUGAGGAUAUCGAUGUCCAAAAAAAAGUGCGGGACUCGAGAAGGCACUUGGC [salish99-ex1-33] | 51.5 | 34.3
22 | AAUAACACAGGAUAUACUAAAGAAAUGAAAAGAAAUAAAGAACAUGAGGAUCACCCAUGUAGAAGGGUGAAUAA [Shenshek] | 204 | 186
23 | UGCAUGUAAGGAUAUGCAACCGGCGCUCAUUAACCGGUCAAGCAGAAGGUACAUGAGGAUCACCCAUGUGUCCG [Esteleus] | 17.2 | 52.2

Row | Sequence | apparent KD of MS2 coat protein [1] [nM] | apparent KD of MS2 coat protein [2] [nM]
24 | CUUAUGUGAGGAUAUGUACAGAAAAAACUGGGUGUAACUGUACAGAAGGCACAUGAGGAUCACCCAUGUGCAAA [EX4 388: S S Pseudoknot 13] | 70.2 | 56.8
25 | AAAAAGUCAGGAUAUUCGGAUAGGAAAACGAAAACCUAUCCGAAGAAGGGACAUGAGGAUCACCCAUGUAAAAA [Ecls4-II] | 48.9 | 46.1
26 | GGAGGCGUAGGAUAUACAUGAGGAUCACCCAUGUGAGAGAAAAAAGUGAGAAAGAAAAGUAGAAGGACGUUUCG [salish99-ex3-127] | 45.4 | 92.1
27 | AGCGAGUAAGGAUAUCGGAAAGGACACGAAAGUGACAAAGACGAGAAGGUACAUGAGGAUCACCCAUGUAAAAA [milkweed 25] | 26.8 | 17.8
28 | AACAGACAUGAGGAUCACCCAUGUGAGGAUAUGGCAAUCGAUAGAACUAGAAUGACAACCAGAAGGCACAGCAA [JR_Exc001_Sub004] | 77.6 | 86.3
29 | UCCGGACAUGAGGAUCACCCAUGUGAGGAUAUAUAAAGUGGGACUGGAAACAGGCCCAAUAGAAGGCACAUGAC [Atatesin] | 22.6 | 21.9
30 | CUCUUGUCAGGAUAUCGAUGAAUAAUAAAACAGAGGAACAUUGAGAAGGGACAUGAGGAUCACCCAUGUAAAAC [May 83] | 73.1 | 48.9
31 | UCCACACAUGAGGAUCACCCAUGUGAGGAUAUCUAGAAAACCUCAUGUAAAAAAAUCUAGAGAAGGCACAUGAA [Design 92: Pseudoknot B] | 24 | 25
32 | AGAAAACAUGAGGAUCACCCAUGUCAGGAUAUCAAAAAGAAAAGAAAAGAAAGAAGAAUGAGAAGGGACAAGAA [Khasekhem(wy)] | 27.5 | 32.1
33 | AAAAAUUGAGGAUAUACGUACAUGUCAAAAGACGUGAAGGGACAUGAGGAUCACCCAUGUAGAAGGCGAAAGAA [JL Neck Breaker 13] | 37.1 | 16
34 | AAAAUACAUGAGGAUCACCCAUGUCAGGAUAUGCUAAAAAAAAAAUUAAAAAAAAAAUGUAGAAGGGACUAAAA [Exclusion Z2] | 53.7 | 40
35 | AAGAAACAUGAGGAUCACCCAUGUCAGGAUAUCAAAAAGAAAAGAAAAGAAAGAAGAAUGAGAAGGGACAAAGG [Meryibre Khety I] | 50.7 | 61.7
36 | AGAGAGAGAGGAUAUACAUGAGGAUCACCCAUGUAAAAGAAAGAAAAGGGAAAGAAAAGUAGAAGGCUCAGAGA [Ruby 65] | 31.6 | 53.5
37 | UCCGGACAUGAGGAUCACCCAUGUGAGGAUAUAUAAAGUGGGACUAGAAACAGUCCCAAUAGAAGGCACAUGAC [Esarbiorar] | 22 | 17.6
38 | CGAAUACAUGAGGAUCACCCAUGUUAGGAUAUGCGAAAACAAAACAAAACAAACAAAAGUAGAAGGAGCAACAA [EXC - 1] | 18.1 | 20
39 | AACUGACAUGAGGAUCACCCAUGUCAGGAUAUGACUUGACGAAAAAAAACAUGUCAUGUCAGAAGGGACAUGGA [Design 89: Sub-opt Z] | 26.4 | 27.6
40 | AUCUCGUCAGGAUAUGACUACAUAAAAAAAAAAAAAUGUAGUCAGAAGGGACAUGAGGAUCACCCAUGUACCAA [HSL_Exclusion 4 64% 3] | 21.9 | 22.8
41 | AAGAAACAUGAGGAUCACCCAUGUCAGGAUAUUCAAAAGAAAAGAAAAGAAAGAAGAAGAAGAAGGGACAAAGG [Neferkare II] | 57.6 | 66.1
42 | CCCAUGUCAGGAUAUCAGUAGUAAAAAAAAAAAAUUACUACUGAGAAGGGACAUGAGGAUCACCCAUGUUCAAA [EX4 317: Super Stable 17] | 33.4 | 28.2
43 | AAAAAACAUGAGGAUCACCCAUGUGAGGAUAUCGCUAGUGAGACCCUAGUGUCAGUGAUGAGAAGGCACAUAAA [Brourd 613 Mod 8 - Jieux - Exclusion 1] | 32.8 | 32.5
44 | AAAAAACAUGAGGAUCACCCAUGUGAGGAUAUGACGUAAAUAAAGAAAUAAGAAAUCGUCAGAAGGCACAAAAA [Mat - Exclusion 1 - Eli mod - D73] | 28.6 | 41.7
45 | AGAAAGUGAGGAUAUUCGGAUAGGAAAACGAAAACCUAUCCGAAGAAGGCACAUGAGGAUCACCCAUGUAAAGA [Mat - Exaclusion 4 - Eli mod - D39] | 39.6 | 54
